Test results taken from patent publication US11795488B2, “Methods for enzymatic peptide ligation” (NANYANG TECHNOLOGICAL UNIVERSITY, priority 2016, dated 2023).

Target: the molecule itself
Test: size exclusion chromatography (self-association)

B1: AEP-holo (activated form of OaAEP1, without the C-terminal cap domain) (enzyme)
chain: SVGTRWAVLIAGSKGYANYRHQAGVCHAYQILKRGGLKDENIVVFMYDDIAYNESNPRPGVIINSPHGSDVYAGVPKDYTGEEVNAKNFLAAILGNKSAITGGSGKVVDSGPNDHIFIYYTDHGAAGVIGMPSKPYLYADELNDALKKKHASGTYKSLVFYLEACESGSMFEGILPEDLNIYALTSTNTTESSWCYYCPAQENPPPPEYNVCLGDLFSVAWLEDSDVQNSWYETLNQQYHHVDKRISHASHATQYGNLKLGEEGLFVYMGSNPANDNYTSLDGNALTPSSIVVNQRDAD
notes: also called mature OaAEP1
B1: no binding.
